# Experimental data: US7119066 (Regeneron, dated 2006)
# T1: human CNTF receptor alpha-component on MG87/CNTFR fibroblasts (human, UniProt P26992 23-342)
# T1 construct: whole, on cells; also called huCNTFR; CNTFRα
# T1 sequence (looked up): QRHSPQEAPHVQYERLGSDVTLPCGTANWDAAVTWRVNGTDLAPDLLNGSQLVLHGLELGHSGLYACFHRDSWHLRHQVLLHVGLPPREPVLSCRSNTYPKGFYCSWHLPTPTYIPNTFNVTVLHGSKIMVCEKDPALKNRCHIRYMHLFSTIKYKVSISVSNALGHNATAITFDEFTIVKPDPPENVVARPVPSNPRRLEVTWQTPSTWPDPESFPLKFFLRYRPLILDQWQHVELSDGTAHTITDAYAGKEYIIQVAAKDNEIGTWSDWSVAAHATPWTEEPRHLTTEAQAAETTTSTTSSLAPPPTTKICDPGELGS
# T2: rat CNTF receptor on rat superior cervical ganglia (SCG) neurons (rat, UniProt Q08406 23-342)
# T2 construct: whole, on cells; also called rat SCG neurons; rat receptor
# T2 sequence (looked up): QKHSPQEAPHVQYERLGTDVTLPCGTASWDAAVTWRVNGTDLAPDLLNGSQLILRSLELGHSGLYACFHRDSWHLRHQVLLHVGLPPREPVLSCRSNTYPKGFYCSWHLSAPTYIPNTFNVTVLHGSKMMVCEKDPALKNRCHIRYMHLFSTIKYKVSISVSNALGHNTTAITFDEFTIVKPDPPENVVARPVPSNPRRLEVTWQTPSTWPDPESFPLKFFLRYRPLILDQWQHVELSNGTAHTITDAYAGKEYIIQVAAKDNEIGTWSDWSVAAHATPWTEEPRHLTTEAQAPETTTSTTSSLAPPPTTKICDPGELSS
# What was measured:
# [1] = target: T1, human CNTF receptor alpha-component on …; experiment: competition with 125I-rat CNTF on MG87/CNTFR cells
# Protocol: (§1) Binding was performed directly on cell monolayers. Cells in culture wells were washed once with assay buffer consisting of phosphate buffered saline (PBS; pH 7.4), 0.1 mM bacitracin, 1 mM PMSF, 1 µg/ml leupeptin, and 1 mg/ml BSA. […] Non-specific binding was determined in the presence of 1,000-fold excess of unlabelled CNTF. Specific binding towards MG87/CNTFR was 80–90%. Data were analyzed using the […] program (ISI, Philadelphia, Pa.).
# Similar results were obtained from competition experiments with mouse fibroblasts transfected with a plasmid directing the expression of the human CNTF receptor (FIG. 4b).
# [2] = target: T2, rat CNTF receptor on rat superior …; experiment: competition with 125I-rat CNTF on rat SCG neurons
# Protocol: Growth medium consisted of Ham's nutrient mixture F12 with 10% heat-inactivated fetal bovine serum (Hyclone), nerve growth factor (NGF) (100 ng/ml), penicillin (50 U/ml) and streptomycin (50 µg/ml). Cultures were maintained at 37° C. in a humidified 95% air/5% CO_2 atmosphere. Ganglion non-neuronal cells were eliminated by treatment with araC (10 µM) on days 1 and 3 of culture. Cultures were fed 3 times/week and were routinely used for binding assays within 2 weeks.
# as §1
binder,measurement,setting,value
"recombinant human CNTF (ciliary neurotrophic factor) (ligand, also called rHCNTF; hCNTF) MAFTEHSPLTPHRRDLCSRSIWLARKIRSDLTALTESYVKHQGLNKNINLDSADGMPVASTDQWSELTEAERLQENLQAYRTFHVLLARLLEDQQVHFTPTEGDFHQAIHTLLLQVAAFAYQIEELMILLEYKIPRNEADGMPINVGDGGLFEKKLWGLKVLQELSQWTVRSIHDLRFISSHQTGIPARGSHYIANNKKM",fold less potent than rat CNTF,[1],12 times
same,fold less potent than unlabelled rat CNTF,[2],90 times
